Experimental data reported in publication PMC12828377, “HDAC6-mediated PFKL deacetylation enhances aerobic glycolysis and promotes VSMC proliferation” (The Journal of Biological Chemistry, 2025).
Each block holds one molecule with its values, some of them ahead of it.

Columns and labels:
Experiment in all cases: cross-linking; VSMC lysate (700 ug protein in NP40 buffer) fixed with 0.1% glutaraldehyde on ice for 10 min, then Western blot; cells with or without PDGF-BB (10 ng/ml, different durations), TSA or NAM, or transduced with Ad-PFKL WT/K563Q/K563R
HA-PFKL K563R = HA-PFKL K563R (UniProt P17858)
HA-PFKL WT = HA-PFKL WT (UniProt P17858)
[1] = target: the molecule itself

stoichiometry N (HA-PFKL K563R): 4
Molecule: HA-PFKL K563R (from UniProt P17858 1-780) (enzyme)

stoichiometry N (HA-PFKL WT): 4
Molecule: HA-PFKL WT (from UniProt P17858 1-780) (enzyme)

B1: phosphofructokinase, liver type (PFKL) (enzyme, rat (endogenous in primary rat VSMCs), UniProt P30835 1-780, looked up)
chain: MATVDLEKLRMSGAGKAIGVLTSGGDAQGMNAAVRAVTRMGIYVGAKVFLIYEGYEGLVEGGENIKPANWLSVSNIIQLGGTIIGSARCKAFTTREGRLAAAYNLLQHGITNLCVIGGDGSLTGANIFRNEWGSLLEELVKEGKISESTAQNYAHLSIAGLVGSIDNDFCGTDMTIGTDSALHRIMEVIDAITTTAQSHQRTFVLEVMGRHCGYLALVSALASGADWLFIPEAPPEDGWENFMCERLGETRSRGSRLNIIIIAEGAIDRHGKPISSSYVKDLVVQRLGFDTRVTVLGHVQRGGTPSAFDRVLSSKMGMEAVMALLEATPDTPACVVSLSGNQSVRLPLMECVQVTKDVQKAMDEKRFDEAIQLRGRSFENNWKIYKLLAHQKVSKEKSNFSLAILNVGAPAAGMNAAVRSAVRTGISEGHTVYVVHDGFEGLAKGQVQEVGWHDVAGWLGRGGSMLGTKRTLPKPHLEAIVENLRTYNIHALLVIGGFEAYEGVLQLVEARGRYEELCIVMCVIPATISNNVPGTDFSLGSDTAVNAAMESCDRIKQSASGTKRRVFIVETMGGYCGYLATVTGIAVGADAAYVFEDPFNIHDLKANVEHMTEKMKTDIQRGLVLRNEKCHEHYTTEFLYNLYSSEGRGVFDCRTNVLGHLQQGGAPTPFDRNYGTKLGVKAMLWMSEKLRDVYRKGRVFANAPDSACVIGLRKKVVAFSSVTELKKETDFEHRMPREQWWLNLRLMLKMLAHYRISMADYVSGELEHVTRRTLSIDKGF
notes: phosphofructokinase, liver type (PFKL), endogenous in primary VSMCs from the thoracic aorta of Sprague-Dawley rats; Acetylation level of the endogenous protein changes with PDGF-BB, TSA or NAM; sites on the endogenous protein were not mapped directly; also called endogenous PFKL; PFK1 liver isoform; source: endogenous, primary rat VSMC lysate (NP-40 buffer) or fixed VSMCs
stoichiometry N [1]: 4
